Measured values reported in patent US20250152746A1, “BASE EDITING OF ANGPTL3 AND METHODS OF USING SAME FOR TREATMENT OF DISEASE” (Verve Therapeutics, Inc., priority 2020, published 2025).
In the oligonucleotide strings, read from the 5' end, every base follows the letter of its sugar. An asterisk marks phosphorothioate; unmarked linkages are phosphodiester. Other units and linkages are bracketed, terminal groups are in braces. A string of capitals states the bases alone. m = 2'-O-methyl; r = 2'-OH (RNA)

Columns and labels:
PCSK9 gene splice site = format: cell-based, human
Description: PCSK9 gRNAs were co-transfected with an equivalent amount of in vitro transcribed ABE8.8 mRNA MA002 (1:1 ratio by weight) into primary hepatocytes and processed as described in detailed methods. In one set of experiments, extracted genomic DNA was analyzed for base editing of the target splice site with next-generation sequencing of PCR amplicons generated around the target sites. Samples were prepared using the Nextera XT DNA library preparation kit (Illumina) according to the manufacturer's protocol. Briefly, two rounds of PCR were performed first to amplify the region of interest and second to add DNA sequences required for next generation sequencing and sample identification to the initial product. The final amplicon was sequenced on the Illumina MiSeq instrument according to the manufacturer's protocol.
Similarly, three gRNAs (GA098, GA099, GA100) were synthesized matching the 5′-[…]-3′ (SEQ ID NO: 15) (GA091) human protospacer sequence, as well as four gRNAs (GA067/GA101, GA102, GA103, GA347) matching the 5′-[…]-3′ (SEQ ID NO: 14) (GA067) cynomolgus protospacer sequence, but with more extensive chemical modifications of various kinds (Table 1). GA066 and GA095 contain the same chemical composition and modification pattern, as do GA067 and GA101 with one another. […] Each of the gRNAs described in Table 8, with an equivalent amount of in vitro transcribed ABE8.8 mRNA MA002 (1:1 ratio by weight), were co-transfected into primary human hepatocytes and primary cynomolgus hepatocytes via MessengerMax reagent, using various dilutions to assess for editing activity at different concentrations of test article. Three days after transfection, genomic DNA was harvested from the hepatocytes, and then assessed for base editing of the target splice site with next-generation sequencing.
Modifications and/or truncations to either the spacer or tracr portion of the gRNA was assessed by alteration of the GA066 spacer (5′-[…]-3′ (SEQ ID NO: 13)) (Table 12). […] Each of the gRNAs with an equivalent amount of in vitro transcribed ABE8.8 mRNA (1:1 ratio by weight) were co-transfected into primary human hepatocytes and primary cynomolgus hepatocytes and processed as described in detailed methods. […]

PCSK9 gene [1] = assay: PCSK9 gRNA/SpCas9 editing in primary human hepatocytes (Tables 2, 4); format: cell-based; details: SpCas9 mRNA MS002 1:1 by weight; for Human Primary Hepatocyte Editing % 100: 100 ng/RNA/mL; for Human Primary Hepatocyte Editing % 500: 500 ng/RNA/mL; for Human Primary Hepatocyte Editing % 2500: 2500 ng/RNA/mL
In short: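 Editing at the PCSK9 site quantified by NGS of PCR amplicons from genomic DNA. Input: SpCas9 mRNA with gRNA, 1:1 by weight, transfected into primary human hepatocytes at 2500, 500 or 100 ng RNA/mL (tracr-modified guides at 2500, 1250, 500, 250 ng/mL).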

PCSK9 gene [2] = assay: PCSK9 gRNA/SpCas9 editing in primary cynomolgus hepatocytes (Tables 2, 22); format: cell-based, cynomolgus monkey; details: SpCas9 mRNA MS002 1:1 by weight; for Cyno Primary Hepatocyte Editing % 100: 100 ng/RNA/mL; for Cyno Primary Hepatocyte Editing % 500: 500 ng/RNA/mL; for Cyno Primary Hepatocyte Editing % 2500: 2500 ng/RNA/mL

| Molecule | Human Primary Hepatocytes-splice site editing % 1250 ng/mL (PCSK9 gene splice site) | Human Primary Hepatocytes-splice site editing % 2500 ng/mL (PCSK9 gene splice site) | Human Primary Hepatocytes-splice site editing % 5000 ng/mL (PCSK9 gene splice site) | Human Primary Hepatocyte Editing % 100 (PCSK9 gene [1]) | Human Primary Hepatocyte Editing % 500 (PCSK9 gene [1]) | Human Primary Hepatocyte Editing % 2500 (PCSK9 gene [1]) | Cyno Primary Hepatocyte Editing % 100 (PCSK9 gene [2]) | Cyno Primary Hepatocyte Editing % 500 (PCSK9 gene [2]) | Cyno Primary Hepatocyte Editing % 2500 (PCSK9 gene [2]) |
| --- | --- | --- | --- | --- | --- | --- | --- | --- | --- |
| GA078: PCSK9 gRNA for ABE8.8 splice site editing, Human/Cyno (nucleic acid, listed as RNA; note = Description of Combined DNA/RNA Molecule: Synthetic oligonucleotide; modified_base 1: mod_base = OTHER; note = 2'-O-Methyl-adenosine phosphorothioate; modified_base, PCSK9 gRNA for ABE8.8 splice site editing, Human/Cyno) guide: AGCACCTACCTCGGGAGCTGGTTTTAGAGCTAGAAATAGCAAGTTAAAATAAGGCTAGTCCGTTATCAACTTGAAAAAGTGGCACCGAGTCGGTGCTTTT | 6.5% | 10.0% | 12.6% | – | – | – | – | – | – |
| GA076: PCSK9 gRNA for ABE8.8 splice site editing, Human/Cyno (nucleic acid, 2'-O-methyl at 1, 2, other sugars, backbone and T or U not given here; further chemistry not fully specified, PCSK9 gRNA for ABE8.8 splice site editing, Human/Cyno) guide: GAAAGACGGAGGCAGCCTGGGTTTTAGAGCTAGAAATAGCAAGTTAAAATAAGGCTAGTCCGTTATCAACTTGAAAAAGTGGCACCGAGTCGGTGCTTTT | 1.6% | 3.9% | 4.9% | – | – | – | – | – | – |
| GA186: PCSK9 gRNA; protospacer CTCATCTTCACCAGGAAGCC (SEQ ID NO: 180) (nucleic acid) guide: mC*mU*mC*rArUrCrUrUrCrArCrCrArGrGrArArGrCrCrGrUrUrUrUrArGrArGrCrUrArGrArArArUrArGrCrArArGrUrUrArArArArUrArArGrGrCrUrArGrUrCrCrGrUrUrArUrCrArArCrUrUrGrArArArArArGrUrGrGrCrArCrCrGrArGrUrCrGrGrUrGrCrU*mU*mU*mU | – | – | – | 0.79% | 3.57% | 12.01% | 1.96% | 7.59% | 33.48% |
| GA084: PCSK9 gRNA for ABE8.8 splice site editing, Human/Cyno (nucleic acid, 2'-O-methyl at 1, 2, other sugars and backbone not given here; further chemistry not fully specified, PCSK9 gRNA for ABE8.8 splice site editing, Human/Cyno) guide: CCTCTTCACCTGCTCCTGAGGTTTTAGAGCTAGAAATAGCAAGTTAAAATAAGGCTAGTCCGTTATCAACTTGAAAAAGTGGCACCGAGTCGGTGCTTTT | 4.9% | 7.6% | 8.6% | – | – | – | – | – | – |
| GA184: PCSK9 gRNA; protospacer ATGGAAGACATGCAGGATCT (SEQ ID NO: 178) (nucleic acid) guide: mA*mU*mG*rGrArArGrArCrArUrGrCrArGrGrArUrCrUrGrUrUrUrUrArGrArGrCrUrArGrArArArUrArGrCrArArGrUrUrArArArArUrArArGrGrCrUrArGrUrCrCrGrUrUrArUrCrArArCrUrUrGrArArArArArGrUrGrGrCrArCrCrGrArGrUrCrGrGrUrGrCrU*mU*mU*mU | – | – | – | 2.65% | 8.29% | 29.55% | 2.90% | 10.54% | 31.87% |
| GA075: PCSK9 gRNA for ABE8.8 splice site editing, Human/Cyno (nucleic acid, listed as RNA; modified_base 1: mod_base = OTHER; note = 2'-O-Methyl-uridine phosphorothioate; modified_base 2: mod_base = OTHER; modified_base, PCSK9 gRNA for ABE8.8 splice site editing, Human/Cyno) guide: TTGGAAAGACGGAGGCAGCCGTTTTAGAGCTAGAAATAGCAAGTTAAAATAAGGCTAGTCCGTTATCAACTTGAAAAAGTGGCACCGAGTCGGTGCTTTT | 1.8% | 3.1% | 5.5% | – | – | – | – | – | – |
| GA083: PCSK9 gRNA for ABE8.8 splice site editing, Human/Cyno (nucleic acid, 2'-O-methyl at 1, 2, other sugars and backbone not given here; further chemistry not fully specified, PCSK9 gRNA for ABE8.8 splice site editing, Human/Cyno) guide: UAAGGCCCAAGGGGGCAAGCGTTTTAGAGCTAGAAATAGCAAGTTAAAATAAGGCTAGTCCGTTATCAACTTGAAAAAGTGGCACCGAGTCGGTGCTTTT | 0.2% | 0.2% | 0.2% | – | – | – | – | – | – |
